Source: PMC2244710, “The Gammaherpesvirus m2 Protein Manipulates the Fyn/Vav Pathway through a Multidocking Mechanism of Assembly” (PLoS ONE, 2008)
Square brackets hold non-standard residues; d marks the D form. Ends that are not written are not given here. * marks the point of attachment. Biotin = O=C1N[C@H]2[C@H](CS[C@H]2CCCCC(=O)*)N1; pY = N[C@@H](Cc1ccc(OP(=O)(O)O)cc1)C(=O)O

Biological target: T1, GST fusion of the SH2 domain of mouse Fyn (residues 145-247) (mouse, UniProt P39688 145-247)
T1 construct: SH2 domain of mouse Fyn, residues 145-247; Cloned into pGEX-6P-1; also called GST-SH2 (Fyn); SH2 domain of Fyn; source: Escherichia coli, IPTG induction, purified with glutathione-sepharose beads
T1 sequence (P39688 145-247): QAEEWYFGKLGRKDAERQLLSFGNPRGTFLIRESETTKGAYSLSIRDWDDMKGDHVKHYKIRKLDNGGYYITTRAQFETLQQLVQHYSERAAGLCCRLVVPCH
Assay: pull-down; 10 µg of biotinylated pY120 peptide incubated with increasing amounts of purified GST proteins overnight at 4°C; recovered with streptavidin-conjugated beads; anti-GST immunoblot
Conditions: both partners purified

B1: N-terminal biotinylated, tyrosine phosphorylated M2 peptide incorporating Y120 (SPEENIpYETANSE) (peptide)
peptide: Biotin-SPEENI[pY]ETANSE
notes: region of M2 of MHV-68 incorporating Y120; numbers count on: the final spliced form of the protein; also called pY120 peptide; phosphorylated Y120 peptide; source: synthetic peptide, bought: Sigma
binding result: binds
